Measurements from patent publication US20120165211A1, “Human Antibodies Cross-Reacting With A Bacterial And A Self Antigen From Atherosclerotic Plaques” (priority 2007, published 2012).

Assays:
[1] = biological target: T1, recombinant transgelin (rTAGLN-Origene cod: TP302448) (human, UniProt Q01995 1-201); experiment: western blot on human transgelin (referred back to)
T1 construct: also called commercial transgelin 1; human transgelin

[2] = biological target: T2, transgelin 1 (SM22) from coronary plaque lysate (human, UniProt Q01995 2-201); experiment: 2D electrophoresis western blot of coronary plaque lysate with 7816FLAG, spots identified by MALDI-ToF
T2 construct: also called TAGLN; spots C1 and C2

[3] = biological target: T1, recombinant transgelin (rTAGLN-Origene …); experiment: western blot on recombinant transgelin
ompK36 = biological target: T3, ompK36 (Klebsiella pneumoniae, UniProt Q48473); experiment: ELISA of 7816 IgG against coated ompK36; type: binding; conditions: full IgG1, 9 μg/ml; 8 μg OmpK36 coated; read at 450 nm
T3 construct: 6xHis (N); made in house; host or cells: E. coli BL21 (DE3), pET28b
Method: 8 μg of OmpK36 was coated on a 96 well ELISA plate in PBS, pH 5.0, overnight at 4° C. The day after, after three washes with PBS, the plate was blocked with PBS/BSA 1%, and purified 7816IgGs were added (9 μg/ml) to each well. After washing three timed with PBS/tween-20 0.1%, an anti-Human Fc antibody-HRP (SIGMA-Aldrich—diluted 1:8000), was added and incubated for 45-60 min. at 37° C. After five washes with PBS/Tween-20 0.1% 40 μL of TMB solution (Pierce) in every well was added and incubated for 15 min. at 37° C. After addition of 40 μl of Stop Solution (H2SO4 0.1 M) in every well the plates were read at 450 nm.

[4] = biological target: T4, recombinant transgelin (rTAGLN) (Homo sapiens, UniProt Q01995); type: binding; conditions: 4-500 ng rTAGLN per well
T4 construct: purchased Origene TP302448

purified OmpK36 = biological target: T5, purified OmpK36 (Klebsiella pneumoniae, UniProt Q48473); experiment: Western blot of purified OmpK36 with recombinant Fabs; type: binding; conditions: 400 ng OmpK36His per lane; Fabs at 10 μg/L; blocking PBS/BSA10%
T5 construct: made in house; host or cells: E. coli BL21 (DE3), pET28b (BamHI/XhoI cloning)
Method: 400 ng of purified OmpK36His was loaded on polyacrylamide gel (all lanes) and SDS-PAGE was performed. Proteins were blotted on PVDF membrane for 2 h at 350 mA. After blocking with PBS/BSA10% the membrane was cut to single lanes and each lane was incubated for 1 h with Fabs at 10 μg/L. After three washes membrane was incubated with anti-Human Light Chain K antibody (Sigma).

T1 sequence (Q01995 whole entry): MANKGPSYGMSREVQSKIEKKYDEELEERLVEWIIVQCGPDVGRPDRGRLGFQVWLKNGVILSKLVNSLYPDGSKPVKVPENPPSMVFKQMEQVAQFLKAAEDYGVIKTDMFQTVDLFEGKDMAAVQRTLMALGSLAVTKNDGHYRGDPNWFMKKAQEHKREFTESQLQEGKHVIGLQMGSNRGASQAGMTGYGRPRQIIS
T4 sequence (Q01995 whole entry): as above
T2 sequence (Q01995 2-201 limits assumed): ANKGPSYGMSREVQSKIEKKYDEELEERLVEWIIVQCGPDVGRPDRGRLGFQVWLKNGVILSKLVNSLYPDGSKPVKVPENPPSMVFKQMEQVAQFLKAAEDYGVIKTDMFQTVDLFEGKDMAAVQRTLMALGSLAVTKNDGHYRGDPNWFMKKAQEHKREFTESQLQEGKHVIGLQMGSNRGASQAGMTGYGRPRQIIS

B1: Fab 7816 (Fab, V domains shown)
VH: LESGPGQVKPSQTLSLTCTVSGGSIGSGSYSWNWIRQPAGRGLEWIGRISDSGNTNFNPSLKSRVTMSVDTSKNQFALKLTSVTAADTATYFCARGRGILTGLFDYWGQGSLVSVSS
VL: SPDSLAVSPGGRATIKCASSQSVLDNSNHKNSLAWYQQKPGLPPKLLIYWASTRYSGVPDRFSGSGSGTDFTLTINNLQAADVAVYFCQQYYSTPWTFGQGTKVE
notes: also called Fab E7816
B1: binds [1].

B2: 7816Fab-FLAG (Fab, V domains shown)
VH: B1 VH
VL: B1 VL
B2: binds [2].

B3: IgG7816 (antibody, V domains shown)
VH: B1 VH
VL: B1 VL
B3: binds [3].

B4: IgG7816: heavy and light chains of Fab 7816 cloned in pAc-k-Fc vector, expressed as IgG in Sf9 insect cells (antibody, V domains shown)
VH: LESGPGQVKPSQTLSLTCTVSGGSIGSGSYSWNWIRQPAGRGLEWIGRISDSGNTNFNPSLKSRVTMSVDTSKNQFALKLTSVTAADTATYFCARGRGILTGLFDYWGQGSLVSVSSASTKGPSVFPLAPSSKSTSGGTAALGCLVKD
VL: B1 VL
In the case of B4, the “binding to ompK36 in ELISA” value (ompK36) is reported as “binds specifically to ompK36” and the “binding to human transgelin in Western blot” value [4] is reported as “positive band is visible”.

B5: Fab 248: human recombinant Fab; heavy chain SEQ ID NO:14, light chain SEQ ID NO:16 (antibody, listed as Homo sapiens)
heavy: LESGGGLVKPGGSLRLSCAASGFTFSDYYMSWIRQAPGKGLEFISYISSGGDTIHHADSVKGRFTISRDNAKKSLYLQMNSLRVEDTAVYYCACRGVWGQGT
light: SPATVSVSPGERATLSCRASQSISFHLAWYQQKPGQAPSLLIYGTSTRATGIPARFSGSGSGTEFTLTISSLQSEDSAVYYCQQYHNWPPLTFGGGT
For B5, the “reactivity with purified OmpK36 in western-blot” value (purified OmpK36) was “react with purified OmpK36”.

B6: Fab 1630 (Fab, V domains shown)
VH: GGGLVKPGGSLRLSCTASGFTFSNGWMSWVRQAPGKGLEWVGRIRSNPDGGTTDYAAPFKGRFTISRDDSKNTLFLQVTSLKTEDTGVYYCITDRGDWKWGVPRDLTYWGQGTLVTVSS
VL: MAELTQSPDTLSLSPGERATLSCRASQSVDSNYLAWFQQKPGQAPRLLIYGAYSRATGIPDRFSGSGSGTDFTLTISRLEPEDFVVYYCQQYLSPPITFGQGTRLETKR
B6: binds [1].

B7: Fab1630: human recombinant Fab from plaque 12 library (ID12LIB); HC SEQ ID NO:10, LC SEQ ID NO:12 (antibody, listed as Homo sapiens)
heavy: GGGLVKPGGSLRLSCTASGFTFSNGWMSWVRQAPGKGLEWVGRIRSNPDGGTTDYAAPFKGRFTISRDDSKNTLFLQVTSLKTEDTGVYYCITDRGDWKWGVPRDLTYWGQGTLVTVSSASTKGPSVFPLAPSSKSTSGGTAALGCLVKDYFPEPVTV
light: AMAELTQSPDTLSLSPGERATLSCRASQSVDSNYLAWFQQKPGQAPRLLIYGAYSRATGIPDRFSGSGSGTDFTLTISRLEPEDFVVYYCQQYLSPPITFGQGTRLETKRTVAAPSVFIFPPSD
For B7, the “binding to human transgelin in Western blot” value [4] was “recognize human transgelin” and the “reactivity with purified OmpK36 in western-blot” value (purified OmpK36) was “react with purified OmpK36”.
